Results published in the supplement of paper PMC10057847, “Precision engineering of biological function with large-scale measurements and machine learning” (PLOS ONE, 2023).
Values joined by “and” are separate entries in the source; they are usually repeats but may differ in a detail not shown here. Identical values can stand only once. ± gives the uncertainty stated by the source.

B1: library; the commonest letter at each place (parent)
chain: MKPVTLYDVAEYAGVSYQTVSRVVNQASHVSAKTREKVEAAMAELNYIPNRVAQQLAGKQSLLIGVATSSLALHAPSQIVAAIKSRADQLGASVVVSMVERSGVEACKAAVHNLLAQRVSGLIINYPLDDQDAIAVEAACTNVPALFLDVSDQTPINSIIFSHEDGTRLGVEHLVALGHQQIALLAGPLSSVSARLRLAGWHKYLTRNQIQPIAEREGDWSAMSGFQQTMQMLNEGIVPTAMLVANDQMALGAMRAITESGLRVGADISVVGYDDTEDSSCYIPPLTTIKQDFRLLGQTSVDRLLQLSQGQAVKGNQLLPVSLVKRKTTLAPNTQTASPRALADSLMQLARQVSRLESGQ

Assays:
Settings in all cases: with IPTG
IPTG [1] = variants of: B1
Procedure, shortened: (§1)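 In E. coli MG1655Δlac with pVER-encoded LacI and a lacO-controlled eYFP, cells grown at 37 °C in kanamycin-containing rich M9 underwent two 160-min growth steps over a 2-fold IPTG dilution series and zero IPTG. After dilution in PBS with chloramphenicol, YFP was read by flow cytometry with gating and bead calibration to MEF. Bayesian MCMC Hill fits of geometric mean fluorescence versus IPTG on non-outlier replicates gave EC50, G0, G∞ and n along with their uncertainties.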

IPTG [2] = variants of: B1; test: Hill coefficient n (dimensionless); higher = steeper dose response
Procedure, shortened: as §1

IPTG [3] = variants of: B1; test: basal output G0 (YFP, no IPTG) (log10 MEF); higher = higher reporter expression without inducer
Procedure, shortened: as §1

IPTG [4] = variants of: B1; test: saturating output G-infinity (YFP) (log10 MEF); higher = higher reporter expression at saturating IPTG
Procedure, shortened: as §1

Variant | EC50 for IPTG (log10 µmol/L) (IPTG [1]) | Hill coefficient n (IPTG [2]) | basal output G0 (log10) (IPTG [3]) | saturating output G-infinity (log10) (IPTG [4])
I160N Q231H I289V D302E | 2.6 ± 0.026 | 1.67 ± 0.073 | 2.06 ± 0.43 | 4.284 ± 0.015
V80L V96E T154I S158R V238D M254I V264I | 1.68 ± 0.055 | 1.16 ± 0.085 | 4.207 ± 0.016 | 3.07 ± 0.031
L90Q R101G C140G L169Q K290I T329S | 1.57 ± 0.01 | 1.54 ± 0.041 | 3.06 ± 0.033 | 4.4822 ± 0.004
S93N V99E S102R L198Q S260F A337S | 0.634 ± 0.024 | 1.31 ± 0.088 | 3.834 ± 0.012 | 4.443 ± 0.0046
V95M Q335R Q360R | 2.01 ± 0.05 | 1.49 ± 0.13 | 2.02 ± 0.65 | 4.169 ± 0.022
E100V T299I | 0.9867 ± 0.0075 | 1.54 ± 0.032 | 3.09 ± 0.037 | 4.4562 ± 0.0024
D88N | 2.843 ± 0.028 | 1.33 ± 0.086 | 0.96 ± 0.58 | 3.479 ± 0.0093
D88G | 2.671 ± 0.015 | 1.41 ± 0.046 | 0.914 ± 0.56 | 3.854 ± 0.0057
S70R I83F | 1.24 ± 0.028 | 1.36 ± 0.079 | 3.18 ± 0.04 | 4.347 ± 0.0092
L169P | 2.678 ± 0.026 | 1.34 ± 0.061 | 2.72 ± 0.067 | 4.3 ± 0.0095
A109E D165V G166A R255C E259G | 0.842 ± 0.018 | 1.33 ± 0.06 | 3.421 ± 0.019 | 4.417 ± 0.0048
I83F G200C | 1.913 ± 0.0091 | 1.48 ± 0.032 | 3.03 ± 0.023 | 4.4658 ± 0.0031
D88Y A241V N246S L305M L319F P339T A341T L346S | 2.73 ± 0.1 | 0.483 ± 0.058 | 4.455 ± 0.018 | 2.91 ± 1.1
M42I R51C | 1.496 ± 0.014 | 1.6 ± 0.058 | 3.21 ± 0.035 | 4.511 ± 0.0051
E11K A27G K37N H112L A139V S191P | 2.26 ± 0.028 | 1.4 ± 0.06 | 3.373 ± 0.0099 | 4.426 ± 0.012
Q60R N113S R207G R216G V271M L307I A350T | 2.236 ± 0.011 | 1.62 ± 0.029 | 2.28 ± 0.058 | 4.401 ± 0.0051
S28G T34M Q60R A81S E100K L148V S221N V271L | 0.477 and 0.475 | 1.41 and 2.02 | 3.92 | 4.46 and 4.41
V80L A87P V301M E357G | 1.57 ± 0.045 | 1.15 ± 0.079 | 4.52 ± 0.015 | 3.493 ± 0.02
S97T G200C | 2.162 ± 0.012 | 1.65 ± 0.041 | 2.68 ± 0.043 | 4.442 ± 0.0057
L296R | 4.37 ± 0.045 | 1.33 ± 0.051 | 2.995 ± 0.0098 | 4.383 ± 0.025
V15I F161I A266T K290R M347I | 2.85 ± 0.076 | 1.46 ± 0.13 | 3.111 ± 0.019 | 4.369 ± 0.043
I83M S97T | 2.18 ± 0.046 | 1.52 ± 0.16 | 1.25 ± 0.81 | 4.399 ± 0.017
S97T F161V | 2.22 ± 0.032 | 1.59 ± 0.087 | 2.49 ± 0.21 | 4.47 ± 0.016
K2R A92V R195P D278G | 2.91 ± 0.042 | 2.03 ± 0.12 | 3.086 ± 0.01 | 4.436 ± 0.04
E44D R101G R303S R355L | 1.62 ± 0.023 | 1.53 ± 0.093 | 2.44 ± 0.76 | 4.461 ± 0.0089
V271M | 2.089 ± 0.0097 | 1.64 ± 0.034 | 2.19 ± 0.19 | 4.413 ± 0.0046
Q291L | 2.064 ± 0.017 | 1.61 ± 0.052 | 2.22 ± 0.21 | 4.407 ± 0.0075
S279T | 1.481 ± 0.012 | 1.48 ± 0.03 | 2.68 ± 0.034 | 4.458 ± 0.0048

Variant | EC50 for IPTG (log10 µmol/L) (IPTG [1]) | Hill coefficient n (IPTG [2]) | basal output G0 (log10) (IPTG [3]) | saturating output G-infinity (log10) (IPTG [4])
S70R S97T | 1.16 ± 0.037 | 1.37 ± 0.1 | 3.15 ± 0.062 | 4.362 ± 0.012
N113D D132N T154R M242I V313A K314N R340S | 2.033 ± 0.011 | 1.64 ± 0.048 | 1.59 ± 0.65 | 4.226 ± 0.0048
Q317L | 2.051 ± 0.0097 | 1.66 ± 0.041 | 2.08 ± 0.5 | 4.4477 ± 0.0044
A82G | 2.576 ± 0.011 | 1.3 ± 0.021 | 2.51 ± 0.036 | 4.414 ± 0.0045
A82V | 1.93 ± 0.025 | 1.51 ± 0.075 | 1.71 ± 0.7 | 4.252 ± 0.01
S69F | 1.05 ± 0.042 | 1.51 ± 0.14 | 2.66 ± 0.67 | 4.379 ± 0.015
S69T | 1.7 ± 0.018 | 1.64 ± 0.06 | 2.07 ± 0.53 | 4.406 ± 0.0077
V80L S97T | 1.611 ± 0.0061 | 1.57 ± 0.031 | 2.33 ± 0.069 | 4.0264 ± 0.0022
V99E A116T T141I S190C | 0.86 ± 0.015 | 1.33 ± 0.047 | 3.534 ± 0.013 | 4.454 ± 0.0039
I160F L185F | 3.06 ± 0.056 | 1.77 ± 0.11 | 2.08 ± 0.16 | 4.19 ± 0.048
V96M | 2.315 ± 0.015 | 1.46 ± 0.048 | 1.73 ± 0.53 | 4.175 ± 0.006
F161L | 3.161 ± 0.0097 | 1.32 ± 0.022 | 1.83 ± 0.42 | 4.38 ± 0.0037
F161S | 1.12 ± 0.017 | 1.43 ± 0.047 | 3.04 ± 0.036 | 4.464 ± 0.0055
F161V | 2.58 ± 0.015 | 1.59 ± 0.044 | 1.98 ± 0.34 | 4.455 ± 0.0069
Y273H D278G Q335L E357G | 3.07 ± 0.09 | 1.62 ± 0.14 | 2.16 ± 0.11 | 4.07 ± 0.075
V136E L169P | 4.914 ± 0.028 | 2.33 ± 0.32 | 4.5429 ± 0.0026 | 1.85 ± 1.1
A194V | 3.35 ± 0.048 | 1.61 ± 0.06 | 2.01 ± 0.08 | 4.322 ± 0.041
S97T V136E | 1.37 ± 0.038 | 1.42 ± 0.12 | 3.05 ± 0.078 | 4.331 ± 0.013
E36V Q89H D132G A138D E277A Q306E S322T | 2.315 ± 0.02 | 1.54 ± 0.044 | 2.12 ± 0.15 | 4.363 ± 0.01
S70R | 1.42 ± 0.021 | 1.44 ± 0.064 | 2.58 ± 0.09 | 4.22 ± 0.0077
I64V V95M Q131R T141A D152E N208I A222T L295M K327N | 0.469 ± 0.011 | 1.55 ± 0.075 | 3.589 ± 0.011 | 4.4894 ± 0.0031
E39D N208D A222V | 1.37 ± 0.022 | 1.55 ± 0.079 | 3.1 ± 0.043 | 4.484 ± 0.0081
S70R V150A S190T F226L | 0.971 ± 0.021 | 1.48 ± 0.089 | 3.37 ± 0.035 | 4.221 ± 0.0049
S70R S190C | 1.547 ± 0.0043 | 1.47 ± 0.017 | 2.64 ± 0.029 | 4.2816 ± 0.0016
I83F | 1.29 ± 0.02 | 1.43 ± 0.06 | 2.91 ± 0.064 | 4.434 ± 0.0071
I83M | 2.555 ± 0.019 | 1.48 ± 0.049 | 1.45 ± 0.61 | 4.268 ± 0.0077
S69T S279T | 1.28 ± 0.013 | 1.56 ± 0.053 | 2.7 ± 0.11 | 4.428 ± 0.0047
